Test results published in patent publication US20230012273A1.

Legend:
[1] = target: ED-tagged human SIRPα V1 receptor on Jurkat signaling reporter cells (human) (UniProt P78324); assay: cell-based or functional assay
[2] = target: ED-tagged human SIRPα V2 receptor on Jurkat signaling reporter cells (human) (UniProt P78324); assay: cell-based or functional assay
ED-tagged human SIRPα V2 receptor on Jurkat signaling reporter cells (human), sequence (P78324 31-504): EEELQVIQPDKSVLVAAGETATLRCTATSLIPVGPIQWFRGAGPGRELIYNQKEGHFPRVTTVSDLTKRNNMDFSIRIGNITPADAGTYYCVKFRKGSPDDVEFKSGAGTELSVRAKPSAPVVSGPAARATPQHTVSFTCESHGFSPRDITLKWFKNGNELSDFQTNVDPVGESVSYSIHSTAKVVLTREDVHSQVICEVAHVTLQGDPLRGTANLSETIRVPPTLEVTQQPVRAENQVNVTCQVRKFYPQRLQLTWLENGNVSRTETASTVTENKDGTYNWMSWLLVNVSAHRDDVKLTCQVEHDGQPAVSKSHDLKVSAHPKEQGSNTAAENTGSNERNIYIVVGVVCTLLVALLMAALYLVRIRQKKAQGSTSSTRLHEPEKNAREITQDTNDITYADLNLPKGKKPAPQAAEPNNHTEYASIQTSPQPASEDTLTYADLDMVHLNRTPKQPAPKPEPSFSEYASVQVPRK

Anti-SIRPα antibody KWAR23, sequence (VH): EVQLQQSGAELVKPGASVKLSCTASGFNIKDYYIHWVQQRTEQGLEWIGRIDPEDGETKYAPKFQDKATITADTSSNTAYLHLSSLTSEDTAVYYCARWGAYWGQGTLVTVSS
Anti-SIRPα antibody KWAR23, sequence (VL): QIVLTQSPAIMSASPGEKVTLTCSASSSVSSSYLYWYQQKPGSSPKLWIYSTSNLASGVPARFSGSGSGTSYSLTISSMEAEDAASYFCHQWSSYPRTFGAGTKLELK
ED-tagged human SIRPα V1 receptor on Jurkat signaling reporter cells (human), sequence (P78324 31-504): as the sequence (P78324 31-504) above

In the case of Anti-SIRPα antibody KWAR23, the Blockade of Cellular CD47-Mediated SIRPα Signaling; IC50 [1] is reported as 0.04 nM and the Blockade of Cellular CD47-Mediated SIRPα Signaling; IC50 [2] is reported as 0.04 nM.
